Test: soluble on expression in E. coli; label from the status in PepcDB or PDB records
For “MTKNKMEAKIDELINNDPVWSSQNESLISKPYNHILLKPGKNFRLNLIVQINRVMNLPKDQLAIVSQIVELLHNSSLLIDDIEDNAPLRRGQTTSHLIFGVPSTINTANYMYFRAMQLVSQLTTKEPLYHNLITIFNEELINLHRGQGLDIYWRDFLPEIIPTQEMYLNMVMNKTGGLFRLTLRLMEALSPSSHHGHSLVPFINLLGIIYQIRDDYLNLKDFQMSSEKGFAEDITEGKLSFPIVHALNFTKTKGQTEQHNEILRILLLRTSDKDIKLKLIQILEFDTNSLAYTKNFINQLVNMIKNDNENKYLPDLASHSDTATNLHDELLYIIDHLSEL”, the “soluble on expression in E. coli” value was “soluble”.
In the case of “MTKPAPTPLYNEFTFFLKKYFSYKVQKISLNAGFTCPNRDGTKGLGGCTYCNNQTFNPEYCKTEKSVTRQLEEGKQFFAHKYPDMKYLAYFQAYTNTYAELEGLKGKYEEALSVDGVVGLVIGTRPDCMPDPLLRYLEELNKHTFLLVEYGIETTRDVTLKRINRGHTYADTVETVNRTAACGILTGGHVILGLPGETHDEIIAQAAELSRLPLTTLKMHQLQLIRGTKMAREFECRPEDFHLFSVDEYIDLVIDYVEHLRPDLILERFVSQSPKELLIAPDWGLKNYEFTARVQKRMKERGAYQGKAYLV”, the “soluble on expression in E. coli” value was “not soluble”.
For “MTKQYLTHRCLIAPPEMADDFFANTVIYLARHDDEGAQGLIINRPSGIQVRELLNDLDIEADHVQPHEVLQGGPLRPEAGFVLHTGQPVWHSSIAVGENLCITTSKDILDAIAHNEGVGRYQIALGYASWTKNQLEGEISRGDWLICDADMDLIFNLPYDERWDAAYKKLGVDRIWLSSEIGHALEHHHHHH”, the “soluble on expression in E. coli” value was “soluble”.
For “MTKTAFLFAGQGAQYLGMGRDFYDQYPIVKETIDRASQVLGYDLRYLIDTEEDKLNQTRYTQPAILATSVAIYRLLQEKGYQPDMVAGLSLGEYSALVASGALDFEDAVALVAKRGAYMEEAAPADSGKMVAVLNTPVEVIEEACQKASELGVVTPANYNTPAQIVIAGEVVAVDRAVELLQEAGAKRLIPLKVSGPFHTSLLEPASQKLAETLAQVSFSDFTCPLVGNTEAAVMQKEDIAQLLTRQVKEPVRFYESIGVMQEAGISNFIEIGPGKVLSGFVKKIDQTAHLAHVEDQASLVALLEKL”, the “soluble on expression in E. coli” value was “soluble”.
For “MTLLSPGIELKETTVQSTVVNNSTGTAALAGKFQWGPAFQIKQVTNEVDLVNTFGQPTAETADYFMSAMNFLQYGNDLRVVRAVDRDTAKNSSPIAGNIEYTISTPGSNYAVGDKITVKYVSDDIETEGKITEVDADGKIKKINIPTAKIIAKAKEVGEYPTLGSNWTAEISSSSSGLAAVITLGKIITDSGILLAEIENAEAAMTAVDFQANLKKYGIPGVVALYPGELGDKIEIEIVSKADYAKGASALLPIYPGGGTRASTAKAVFGYGPQTDSQYAIIVRRNDAIVQSVVLSTKRGGKDIYDSNIYIDDFFAKGGSEYIFATAQNWPEGFSGILTLSGGLSSNAEVTAGDLMEAWDFFADRESVDVQLFIAGSCAGESLETASTVQKHVVSIGDVRQDCLVLCSPPRETVVGIPVTRAVDNLVNWRTAAGSYTDNNFNISSTYAAIDGNYKYQYDKYNDVNRWVPLAADIAGLCARTDNVSQTWMSPAGYNRGQILNVIKLAIETP”, the “soluble on expression in E. coli” value was “soluble”.
For “MTLMNTENEPTGMLTIRVSAMPKDANSAYDIFGGWVMAQMDMAAGIRSAERARGRTVTAAVREMAFARPVKIGDTLCVYTDITRVGRTSITLRVEAWAKRYLSDKRDLVTHAEFIMVALDADGKPTPAPQEDLEHHHHHH”, the “soluble on expression in E. coli” value was “not soluble”.
With “MTLNIYTEEWAPISFSVDGKPDGLAVQVVQEIQKRIDNQDPIKVVPWARGWKIITEQPNTVLFTMTRTAERERMFSLIGPVAVGTTNFYALKNSNLKINLEHHHHHH” the “soluble on expression in E. coli” value was “not soluble”.
With “MTLQEQIMKALHVQPVIDPKAEIRKRVDFLKDYVKKTGAKGFVLGISGGQDSTLAGRLAQLAVEEIRNEGGNATFIAVRLPYKVQKDEDDAQLALQFIQADQSVAFDIASTVDAFSNQYENLLDESLTDFNKGNVKARIRMVTQYAIGGQKGLLVIGTDHAAEAVTGFFTKFGDGGADLLPLTGLTKRQGRALLQELGADERLYLKMPTADLLDEKPGQADETELGITYDQLDDYLEGKTVPADVAEKIEKRYTVSEHKRQVPASMFDDWWKLAAALEHHHHHH” the “soluble on expression in E. coli” value was “soluble”.
With “MTLVASSENTGLCPMTFDDSSGQTSHMLFQRLQYQRKTGRFCDVEIVVQNKSFAAHRNILAAHSPYFDAIFKYCKITKEQLTINSKSPQVFELFLNYMYSGTVIIDRSSVSELLRFANNFLIVKLKVYCAAYLDRYLDAANCLSIRTLAQRYNLPGLVKSATDYFDSNLNRCLLESRDIIGYTYTQLTRLIGDPKYVDCITSDTYLKLIVRWVGEEVSKREEIFRLLLESCEFREVSADTLEFLLDYSPLLSKSQKSRFLLLHVMETNNMLMEKYSTQLSSLRQKIVDLPILHDPSQFEDDIYDSSDSEEDPDDYIADGHPTSAQVVEYGNDVNNRLKMKIAFQPGNEKKRLKRPKGMKKHHLHPIPPINATENESIPWIDEDEIDGVYATCSLEGCHTYGPVDNLDPDDCEDEEDQPDENGPSTCIFCGLRTANEELLEKHKARHHNRNTYYMCHLCEFETNWSKQFYLHCAEHWTEIPYRCETCPFTSNEIQEFLTHRLQHTDERFFKCGECAWKGRTRSQLFAHERMHSVLDDRSLHCEECGRGFQQHSTLDHHVASHNDPRPYICEDCGFATKTADHLSLHRRQHTGDNFSCHIAGCDYSSTKKSQLAAHLRTHMAVRAHLCKICGRGFIEKSHLVRHERIHLEEKPFKCDQCEYASSRRDKLKEHIIKHHNSEVLTFQKTQRRKYKRQRMLAAASNIVNNPDALFRPITSDDAVSNWQATNDFSTYSPNPNDYGGPSTYGNPSSPQRAFSVVHPSQHQHHAQSPGCMSMMNVPLRDNHHQMQRQDSPGDSVGGGQGGGGGGGPEGSDNTHGVLMTPNLVMRSPHNRSAVQPQFNNLSTNSDPQQQQQQQQLRPFSLPTYGQMDLAQAAQLQQLQQQLQAAGLPPTGTPNNQDNSNNAWNPWNVQ” the “soluble on expression in E. coli” value was “not soluble”.
With “MTMTETMNVDLLLEMESVHVKPFTEHDKVILRSYEAVVDGIASLIGPFCEIVLHSLEDLNTSAIKIANGENTGRQVGSPITDMALKMLRDIEGSERNFSRSYFTRAKGGVLMKSITVAIRNGENRVIGLLCINVNLDAPFSQVLKSFMPTQEAQEAASSVNFASDVEELVDQTVERTIEEINGDKSVSNNTKNRQIVMALFDKGIFDIKDAINRVADRLNISKHTVYLYIRQRKTEDDEK” the “soluble on expression in E. coli” value was “not soluble”.
With “MTMVKTLVALATERMLLKTSGPTFLRGIEFMYAAGLAPDRLSVMMTSSHKYVLQFHSKCDIRPFAANYPNFGRVLRGIVHVREWRIKSIEFVNVAFYMRDVDNLERAIEKLGVELVLLRNCTYPGVQRGDEAVKFLSALNRKKQAVVCEYGDDRLKHRIGRRSSGNRTRRASRNGQEIVNPAIAPGAAAAAQPALEAAPAAPAAGAAAPEANAPQAAPPGIRRPIPLNPDQARHIIPQLLNPGGAQPAPVQDGPVRGPPGIINQGRVVVGAHVYEFRAADVPNADGVPAVHNINHLLNVLNENAGNDVRVIVLPSRVGEGLPIHFNNNDLIFRHQSRPQPAPQQAAAAAAAGAAPAVAVGAEPLPQPDDVQIAPIPADERQARYARVQARLGHMMNARMRQNQEDQQYYYDQQPPNLMVVGTAHAHYRRHMNAQAHQQQREPSWNNYAVANAPPAIIQRNLDAPAPMFGVAVNEPQVQRNGDDSNDSTDREEIYDAEQQRQEALRDLVADPEAQPNFAPVEAQAVDLDMLEEEGEDDEVMEVGGVDGQFMMDGRAVME” the “soluble on expression in E. coli” value was “not soluble”.
For “MTNERVMQLIREAYEKNLTTLDLSENQLTQLPSEITELKNLTTLNLSGNQLTQLPSEIGELKSLTSFDLSVNQLTQLPPEIGELKNLTILNVYRNQLIQLLPEITELKNLTTLDLSLNKLTQLPPEIGELEHHHHHH”, the “soluble on expression in E. coli” value was “not soluble”.
In the case of “MTNHIEYKKNQIIASSEIDDLIFMSAPQEWSLEEQKEIQDKLVREAFHFHYNRNEKYRNYCISQHINENLHSIDEIPVFPTSIFKHMKFHTVSMGDIENWHTSSGTQGIKSCIARDRLSIERLLGSVNFGMKYVGNWFEHQMELVNLGPDRFSASNVWFKYVMSLVELLYPTVFTVNNDKIDFEETVNHLYRINNSNKDICLIGPPFFVSLLCQYMKENNIEFKGENRLHVITGGGWKSNENSSLNRQDFNQLIMDTFQLDNVNQIRDTFNQVELNTCFFEDEFQRKHVPPWVYARALDPETLKPVADGELGLLSYMDASSTAYPAFIVTDDIGIVREIREPDPYPGVTVEIVRRLNTRAQKGCALSMASFIQSTILEHHHHHH”, the “soluble on expression in E. coli” value was “not soluble”.

— the DeepSol protein solubility set
